Assay results: article PMC9317851, “Genomic Characterization of Bacillus safensis Isolated from Mine Tailings in Peru and Evaluation of Its Cyanide-Degrading Enzyme CynD” (Applied and Environmental Microbiology, 2022)

Legend:
[1] = molecular target: the molecule itself; test: SEC-MALS; pH 8; 100 mM NaCl, 20 mM Tris-HCl; 100-μL injection of 3.47 mg/mL (89.36 μM) CynD; Superdex 200 increase 10/300 GL; size of the oligomers
[2] = molecular target: the molecule itself; test: SEC-MALS; pH 10; 100 mM NaCl, 20 mM CAPS; 100-μL injection of 3.47 mg/mL (89.36 μM) CynD; Superdex 200 increase 10/300 GL; size of the oligomers
[3] = molecular target: the molecule itself; test: SEC-MALS; pH 9; 100 mM NaCl, 20 mM Tris-HCl; 100-μL injection of 3.47 mg/mL (89.36 μM) CynD; Superdex 200 increase 10/300 GL; size of the oligomers

B1: Cyanide dihydratase CynD from Bacillus safensis PER-URP-08 (CynD_(PER-URP-08)), recombinant with C-terminal 6xHis tag (enzyme, UniProt P0DXY3 1-330, looked up)
chain: MTSIYPKFRAAAVQAAPVYLNLEATVEKSCELIDEAASNGAKLVAFPEAFLPGYPWFAFIGHPEYTRKFYHELYKNAVEIPSLAIQKISEAAKRNETYVCISCSEKDGGSLYLAQLWFNPNGDLIGKHRKMRASVAERLIWGDGSGSMMPVFQTDIGNLGGLMCWEHQVPLDLMAMNAQNEQVHVASWPGYFDDEISSRYYAIATQTFVLMTSSIYTEEMKEMICLTQEQRDYFETFKSGHTCIYGPDGEPISDMVPAETEGIAYAEIDVERVIDYKYYIDPAGHYSNQSLSMNFNQQPTPVVKQLYHQKNEVFTYEDIQYQHGILEEKV
notes: Cyanide dihydratase CynD of Bacillus safensis PER-URP-08, locus EGI07_08135; monomer 38.5 kDa; The forward primer carries the NdeI site CATATG followed by a further atg, so an added N-terminal Met may be present; also called recombinant CynD; EGI07_08135; source: E. coli BL21(DE3)/pLysS, purified (Ni-NTA, size exclusion chromatography); not shown: 6xHis, C-terminal, kept
In the case of B1, the “stoichiometry N” value [1] is reported as 24 to 48 mer, the “stoichiometry N” value [2] is reported as 3 to 5 mer and the “stoichiometry N” value [3] is reported as 4 to 6 mer.
